Laboratory results as given in patent US6576753B1, “DNA encoding human leukotriene C4 synthase” (The Brigham and Women's Hospital, Inc., priority 1994, dated 2003).
Entries after “also recorded” stand apart in the source; their conditions may differ.

T1: LTC4 synthase (Homo sapiens, UniProt Q16873)
T1 construct: expressed in transfected cells; host or cells: COS-7 cells (pcDNA3 clone from KG-1 library), cell lysate
T1 sequence (Q16873 1-150): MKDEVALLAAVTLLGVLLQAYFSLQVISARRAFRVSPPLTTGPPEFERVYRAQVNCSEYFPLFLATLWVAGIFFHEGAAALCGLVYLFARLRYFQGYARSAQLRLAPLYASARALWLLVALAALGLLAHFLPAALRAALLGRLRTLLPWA


Key:
LTC4 synthase [1] = assay: Conjugation of LTA4-ME with GSH by solubilized microsomes of COS cells transfected with wild-type or mutant LTC4 synthase; conditions: for conjugation function of transfected COS cell microsomes: compared to wild-type construct; for Function / Km / effect on Km of GSH: COS cell microsome
Protocol: OF THE EXPRESSED PROTEINS: COS-7 cells were transfected with either wild-type LTC4 synthase cDNA or the mutated LTC4 synthase cDNA by DEAE-dextran transfection (Lam et al., Proc. Natl. Acad. Sci. USA., 91:7663, 1994). Three days after transfection, the cells were harvested by treatment with trypsin and suspended in microsomal buffer (50 mM HEPES buffer pH 7.9 containing 2 mM EDTA and 10 mM β-mercaptoethanol) at a concentration of 5×10^6 cells/ml. The cells were lysed by sonication with a Branson microtip sonicator (Danbury, Conn.) at a setting of 7. Cell lysates were centrifuged at 100,000×g for 60 min at 4° C., and the pellets (microsomes) were resuspended in microsomal buffer and were solubilized by the addition of 0.4% Triton X-102, 0.4% sodium deoxycholate (DOC), and 10% glycerol and stirring at 4° C. for 45 min.
The function of each mutant enzyme as well as the wild-type enzyme was first screened by the incubation of 1-10 μl of solubilized COS cell microsomes with 10 mM GSH and 20 μM LTA4-ME in 200 μl 50 mM HEPES buffer containing 10 mM MgCl2, pH 7.6. The reactions were carried out at room temperature for 10 min and stopped by the addition of 3 vol methanol containing 200 ng prostaglandin B2 (PGB2) as an internal standard. LTC4-ME levels in the samples were determined with high performance liquid chromatography (HPLC).
Reverse phase (RP)-HPLC was carried out with a model 126 dual pump system and model 167 scanning UV detector (Beckman Instruments) controlled by an Gateway 2000 P4D66 computer equipped with Beckman System Gold software. Samples were applied to a 5-μm 4.6×250-mm C18 Ultrasphere reverse phase column (Beckman Instruments) equilibrated with a solvent of methanol/acetonitrile/water/acetic acid (10:15:100:0.2, v/v), pH 6.0 (solvent A). Immediately after the sample was injected, the column was eluted at a flow rate of 1 ml/min with a programmed concave gradient (System Cold curve 6) to 20% solvent A and 80% solvent B (pure methanol) over 0.2 min with continuation isocratically for 5.8 min. Beginning at 6 min, solvent B was increased linearly to 100% over 0.2 min and was maintained at this level for 7 min more. The ultraviolet absorbance at 280 nm and the ultraviolet spectra were recorded simultaneously. The retention times for PGB2 and LTC4-ME were 7.4 and 8.9 min, respectively. LTC4-ME was quantitated by calculating the ratio of the peak area to the area of the internal standard PGB2.

LTC4 synthase [2] = assay: Enzyme kinetics of purified recombinant wild-type or mutant LTC4 synthase; assay type: biochemical, human; conditions: purified recombinant enzyme
Protocol: (§1) PURIFICATION AND KINETIC ANALYSIS OF SELECTED EXPRESSED PROTEINS: Recombinant LTC4 synthases were purified by S-hexyl GSH agarose affinity chromatography (Lam et al., Eur. J. Biochem., 238:606, 1996). Solubilized microsomes were loaded onto a 2.5-cm×1.5-cm open bed of S-hexyl GSH resin equilibrated with 50 mM HEPES, 1 mM EDTA, 5 mM β-mercaptoethanol, 0.1% Triton X-102, 10% glycerol, pH 7.6 (Buffer A) at 4° C. The column was washed sequentially with 5 volumes each of buffer A/0.3 M NaCl/20 mM GSH/0.1% DOC, buffer A/2.5 mM S-hexyl GSH/2.5 mM S-octyl GSH/0.1% DOC, and buffer A/0.1% DOC; and the enzyme was eluted with 5 fractions of 1 volume each of 15 mM probenecid in buffer A containing 0.1% DOC. The enzyme was purified nearly to homogeneity as determined by the presence in silver stained SDS-PAGE gels of a predominant 18-kDa protein band with a minor 34-kDa band; only the 18-kDa band interacted with anti-LTC4 synthase antibody on immunoblot analysis. After sequential concentration and dilution with a Microsep 10K centrifugal concentrator (Filtron Technology Corp., Northborough, Mass.) to remove probenecid, the protein concentration was estimated by staining a SDS-PAGE gel of the purified enzyme and a standard amount of lysozyme resolved in the same gel with Coomassie blue dye and comparing their intensities.
To examine the enzyme kinetics of recombinant wild-type or mutant LTC4 synthase, 3-100 ng portions of purified enzyme were incubated in 200 μl of HEPES buffer, pH 7.6, containing 10 mM MgC'2 with either 20 μM LTA4-ME and various concentration of GSH or with 10 mM GSH and various concentrations of LTA4-ME for 2 min at room temperature. The reactions were terminated by the addition of 3 vol of methanol containing 200 ng PGB2. Samples were then analyzed for LTC4-ME by RP-HPLC.

[3] = Binding of mutant protein to S-hexyl GSH agarose column; conditions: eluted with probenecid
Protocol: as §1

LTC4 synthase [4] = target: T1, LTC4 synthase; assay: Dose-response assay using MK886: conversion of LTA4-ME to LTC4-ME by lysates of transfected COS-7 cells; assay type: biochemical; conditions: at a concentration of 10 μM
Protocol: After 2.8 min more, solvent B was increased linearly to 90% over 2 min and was maintained at this level for an additional 10 min. UV absorbance at 280 nm and the UV spectra were recorded simultaneously. The retention times for PGB2 and LTC4-ME were 8.5 and 10.1 min, respectively.
DOSE-RESPONSE ASSAY USING MK886: Cell lysates of the COS-7 cell transfectant containing SEQ ID NO.:1 were incubated with 20 micromolar LTA4-ME, 20 mM GSH, 5 mM MgCl2 in HEPES buffer (pH 7.6), in the presence of 0-10 micromolar MK886 for 10 minutes at room temperature. Reactions were stopped by addition of 2 volumes of methanol containing 200 ng PGB2. Samples were analyzed by RP-HPLC.

Row | Molecule | conjugation function of transfected COS cell microsomes (LTC4 synthase [1]) | Function (LTC4 synthase [1]) | Km (LTC4 synthase [1]; read-out: Km GSH) | Km (LTC4 synthase [1]; read-out: Km LTA4-ME) | other results
1 | S111V: LTC4 synthase point mutant | did not affect the function |  |  |  | 
2 | C82V: LTC4 synthase point mutant | do not affect conjugation function | 100 % of WT | 2000 µM | 10.9 µM | conjugation function of transfected COS cell microsomes (LTC4 synthase [1]; listed as C82 to V82): None of the mutations affected conjugation function; Vmax LTC4-ME (LTC4 synthase [2]): 37.7 µmol/min/mg; Km (LTC4 synthase [2]; read-out: Km GSH): 900 µM; Km (LTC4 synthase [2]; read-out: Km LTA4-ME): 6.3 µM
3 | L62T: LTC4 synthase point mutant | did not affect the function | 100 % of WT | 2500 µM | 6.7 µM | 
4 | E45Q: LTC4 synthase point mutant | did not attenuate the conjugation function; also recorded: did not affect the function |  |  |  | 
5 | R51T: LTC4 synthase point mutant | do not show conjugation activity | 0 % of WT |  |  | conjugation function of transfected COS cell microsomes (LTC4 synthase [1]; listed as Arg 51 to threonine): abolished the functional activity; Vmax LTC4-ME (LTC4 synthase [2]): Inactive; binding to S-hexyl GSH agarose column [3]: bound to S-hexyl GSH
6 | V49F: LTC4 synthase point mutant |  | 100 % of WT | 9200 µM | 10 µM | 
7 | S100V: LTC4 synthase point mutant | did not affect the function |  |  |  | 
8 | V54Q: LTC4 synthase point mutant | did not affect the function |  |  |  | 
9 | E47Q: LTC4 synthase point mutant | did not attenuate the conjugation function; also recorded: did not affect the function |  |  |  | 
10 | R51K: LTC4 synthase point mutant | activity was not diminished | 100 % of WT | 2300 µM | 9.4 µM | 
11 | Q53N: LTC4 synthase point mutant | did not affect the function |  |  |  | 
12 | T66V: LTC4 synthase point mutant | did not affect the function |  |  |  | 
13 | F46Y: LTC4 synthase point mutant | did not affect the function |  |  |  | 
14 | C[C@H](C#Cc1ccc(Oc2ccc(F)cc2)o1)N(O)C(N)=O [A79175] |  |  |  |  | effect on LTC4 synthase activity in COS cell lysates (LTC4 synthase [4]): did not affect LTC4 synthase activity
15 | R51H | activity was not diminished | 100 % of WT | 3800 µM | 6.4 µM | Vmax LTC4-ME (LTC4 synthase [2]): 20.0 µmol/min/mg; Km (LTC4 synthase [2]; read-out: Km GSH): 1500 µM; Km (LTC4 synthase [2]; read-out: Km LTA4-ME): 6.3 µM
16 | V69T: LTC4 synthase point mutant |  | 100 % of WT | 2000 µM | 19 µM | 
17 | H75Q: LTC4 synthase point mutant | did not affect the function |  |  |  | 
18 | Y97F: LTC4 synthase point mutant |  | 100 % of WT | 16500 µM | 16.5 µM | 
19 | A52S: LTC4 synthase point mutant |  | 80 % of WT | 30000 µM | 4.5 µM | effect on Km of GSH (LTC4 synthase [1]): did exhibit an increase in Km for GSH

Row | Molecule | conjugation function of transfected COS cell microsomes (LTC4 synthase [1]) | Function (LTC4 synthase [1]) | Km (LTC4 synthase [1]; read-out: Km GSH) | Km (LTC4 synthase [1]; read-out: Km LTA4-ME) | other results
20 | E76Q: LTC4 synthase point mutant | did not affect the function |  |  |  | 
21 | Y59F: LTC4 synthase point mutant |  | 100 % of WT | 15500 µM | 19 µM | 
22 | V69S: LTC4 synthase point mutant | did not affect the function |  |  |  | 
23 | R51I: LTC4 synthase point mutant | do not show conjugation activity |  |  |  | conjugation function of transfected COS cell microsomes (LTC4 synthase [1]; listed as Arg 51 to isoleucine): abolished the functional activity
24 | WT: recombinant wild-type human LTC4 synthase (SEQ ID NO.:2) |  | 100 % of WT | 500 to 2000 µM | 6 to 20 µM | Vmax LTC4-ME (LTC4 synthase [2]): 51.3 µmol/min/mg; Km (LTC4 synthase [2]; read-out: Km GSH): 1400 µM; Km (LTC4 synthase [2]; read-out: Km LTA4-ME): 7.4 µM
25 | E58Q: LTC4 synthase point mutant | did not attenuate the conjugation function |  |  |  | 
26 | L39F: LTC4 synthase point mutant | did not affect the function |  |  |  | 
27 | F60Y: LTC4 synthase point mutant | did not affect the function |  |  |  | 
28 | R104S: LTC4 synthase point mutant | did not affect the function |  |  |  | 
29 | C56S: LTC4 synthase point mutant | do not affect conjugation function |  |  |  | conjugation function of transfected COS cell microsomes (LTC4 synthase [1]; listed as C56 to S56): None of the mutations affected conjugation function
30 | R99S: LTC4 synthase point mutant | did not affect the function |  |  |  | 
31 | R48S: LTC4 synthase point mutant | did not attenuate the conjugation function; also recorded: did not affect the function |  |  |  | 
32 | N55A: LTC4 synthase point mutant of the consensus N-glycosylation site |  | 85 % of WT | 10700 µM | 7.7 µM | effect on Km of GSH (LTC4 synthase [1]): increase the Km of GSH
33 | Y109I: LTC4 synthase point mutant | did not affect the function | 100 % of WT | 1600 µM | 20 µM | 
34 | Y50F: LTC4 synthase point mutant | did not affect the function |  |  |  | 
35 | R92S: LTC4 synthase point mutant | did not affect the function |  |  |  | 
36 | Q25K: LTC4 synthase point mutant (protein, UniProt Q16873 1-150, looked up, variant Q25K) Leukotriene C4 synthase: MKDEVALLAAVTLLGVLLQAYFSLKVISARRAFRVSPPLTTGPPEFERVYRAQVNCSEYFPLFLATLWVAGIFFHEGAAALCGLVYLFARLRYFQGYARSAQLRLAPLYASARALWLLVALAALGLLAHFLPAALRAALLGRLRTLLPWA | did not affect the function |  |  |  | 
37 | deletion of the charged amino acids K2 and D3 at the amino terminus: LTC4 synthase deletion mutant (protein, UniProt Q16873 1-150, looked up, variant K2* D3*) Leukotriene C4 synthase: MEVALLAAVTLLGVLLQAYFSLQVISARRAFRVSPPLTTGPPEFERVYRAQVNCSEYFPLFLATLWVAGIFFHEGAAALCGLVYLFARLRYFQGYARSAQLRLAPLYASARALWLLVALAALGLLAHFLPAALRAALLGRLRTLLPWA | Neither the deletion of the charged amino acids K2 and D3 at the amino terminus nor the deletion of the 14 amino acids at the carboxyl terminus altered the function |  |  |  | 
38 | R51I/WT: recombinant pseudo-heterodimer of R51I LTC4 synthase monomer and wild-type monomer (protein, UniProt Q16873 1-150, looked up, variant R51I, heterodimer with wild-type monomer) Leukotriene C4 synthase: MKDEVALLAAVTLLGVLLQAYFSLQVISARRAFRVSPPLTTGPPEFERVYIAQVNCSEYFPLFLATLWVAGIFFHEGAAALCGLVYLFARLRYFQGYARSAQLRLAPLYASARALWLLVALAALGLLAHFLPAALRAALLGRLRTLLPWA | retained enzymatic function | 90 % of WT | 3200 µM | 6.5 µM | 
